Patent US10053696B2, “MiRNA-489 in treatment of breast cancer” (University of South Carolina, priority 2016, dated 2018)

B1: miR-489: microRNA-489 (SEQ ID NO: 2); overexpressed in cells, e.g. from miR-489 expressing vector in the luciferase assay (nucleic acid, listed as Homo sapiens)
chain: GUGGCAGCUUGGUGGUCGUAUGUGUGACGCCAUUUACUUGAACCUUUAGGAGUGACAUCACAUAUACGGCAGCUAAACUGCUAC

Columns and labels:
[1] = test system: miR-489, miR-125b and miR-99a expression in MCF7 HER2 cells; test: qRT-PCR of HER2-regulated miRNAs after lapatinib treatment; format: cell-based; settings: lapatinib treated MCF7 HER2 cells, qRT-PCR (FIG. 4)
Procedure: All data are representative of three independent experiments.
(§1) Quantitative real-time RT-PCR analysis, Immunohistochemistry staining (IHC), Western Blot analysis, Fluorescence-Activated Cell Sorting (FACS) assay, Luciferase assay and Xenograft experiments were performed using standard protocol.
(§2) To identify specific miRNAs that may be involved in promotion of breast cancer progression, expression profiles of several (˜200) miRNA were screened and compared for HER2 over-expressing and control MCF7 cells using quantitative RT-PCR (qRT-PCR) analysis.

[2] = test system: HER2, AKT and MAPK phosphorylation in MCF7 vect and MCF7 HER2 cells; test: Western blot of HER2 signaling after lapatinib treatment; format: cell-based; settings: 2 μM lapatinib, 48 h, Western blot (FIG. 3)
Procedure: as §1, §2

3′UTR of HER2 = test: Dual luciferase assay with HER2 3′UTR reporter constructs; format: cell-based, human; settings: MCF7 HER2 cells, co-transfected 48 h, normalized with renilla (FIG. 16)
Procedure: FIG. 16 presents a schematic representation of the HER2 mRNA (wild type (wt) and mutant (mut)) with putative miR-489 binding site in the 3′ UTR, where the seed region is highlighted. MCF7 HER2 cells were co-transfected with either of miR-489 expressing vector or empty vector and renilla expressing vector for 48 h. Firefly luciferase was measured for each condition and normalized with renilla luciferase. Normalized luciferase activity was compared with WT-3′UTR and Mutant 3′ UTR of HER2 (graph).
A 650 bp long 3′ UTR of human HER2 was amplified from genomic DNA and cloned into the pGL3-promoter vector at the same Xba I and BamH I sites. For the mutation analysis putative miR-489 target site within 3′UTR of HER2 was mutated by Phusion site directed mutagenesis kit (Thermofisher Cat# F-541). All sequences were verified by direct sequencing of the plasmids.
as §1
To examine the similar effect of mimic-489 treatment on the expression of HER2, other breast cancer cell lines, AU-565, BT-474, HCC-1954 and ZR-75-1 cells were treated with mimic-489 for 72 hours to isolate total protein and RNA. […]

SHP2 = SHP2 expression in breast cancer cell lines after miR-489 overexpression; format: cell-based; settings: mRNA and protein levels

Molecule | expression of miR-489, miR-125b and miR-99a after inhibition of HER2 phosphorylation [1] | HER2, AKT and MAPK phosphorylation [2] | luciferase activity of mutant HER2 3′UTR (3′UTR of HER2) | luciferase activity of wt HER2 3′UTR (3′UTR of HER2) | SHP2 expression (SHP2)
CS(=O)(=O)CCNCc1ccc(-c2ccc3ncnc(Nc4ccc(OCc5cccc(F)c5)c(Cl)c4)c3c2)o1 [lapatinib] | at least partially restored the expression profile | almost complete blockade |  |  | 
B1 |  |  | not the mutant HER2 3′UTR is significantly reduced | significantly reduced | reduced SHP2 expression
